The nature of data set [1]: Confocal imaging of kidneys 30 minutes after administration. In kind it is in vivo, mice. As to conditions: 10 nmol. The text has this: Kidneys were isolated, sectioned, and imaged using a Zeiss confocal microscopy.
Data set [2] can be described thus: Competitive renal uptake studies, fluorescence imaging of whole organs. In kind it is in vivo, mice. As to conditions: 4 hours. On the procedure: This example describes competitive uptake studies of peptides of this disclosure in kidneys. Peptides of this disclosure were compared to known kidney homers (“competitors”) to assess the efficiency and strength of kidney targeting. Three competitors were tested against a peptide of SEQ ID NO: 4, and kidney uptake was quantified by fluorescence imaging of whole organs on a Spectrum IVIS imager.
Kidneys from uninjected mice were used as a negative control. Fluorescence signal in each group was quantified to determine the average radiant efficiency in the kidneys from three mice per cohort. Data are shown as mean and error bars indicate standard deviation. A p-value of 0.0081 was calculated by a T-test, and the error bars indicate standard deviation. In this experiment, the unlabeled SEQ ID NO: 4 peptide competed with the SEQ ID NO: 4-AF647 as shown by decreased fluorescence and thus, decreased accumulation of the dye labeled peptide in the kidney. […] Fluorescence signal in each group was quantified to determine the average radiant efficiency in the kidneys from three mice per cohort. Data are shown as mean and error bars indicate standard deviation. Kidney uptake of a peptide of SEQ ID NO: 4-AF647 was not dampened by SEQ ID NO: 121 peptide even at the highest ratio of competitor. […] Fluorescence signal in each group was quantified to determine the average radiant efficiency in the kidneys from three mice per cohort. Data are shown as mean and error bars indicate standard deviation. A p-value of 0.015 was calculated by a Student's unpaired t-test.

Data set [3] is described as follows: Fluorescent peptide delivery to kidneys, whole body fluorescence analysis. In kind it is in vivo. As to conditions: 10 nmol iv, average and standard deviation from two mice. On the procedure: This example illustrates fluorescent peptide delivery to kidneys. Peptides were labeled by reaction with NHS esters of Cy5.5 or AlexaFluor 647 (AF647). For comparison, the free […] NHS esters were hydrolyzed to produce unreactive Cy5.5-COOH and AF647-COOH. A dose of 10 nmol of dye-labeled peptide or dye alone was administered intravenously and fluorescence was measured at 3 hours, 24 hours, and 48 hours after administration. At each time point, mice were frozen and sectioned for whole body fluorescence analysis, which was performed by scanning the sections on the Odyssey 2.1 at 84 um resolution using the 700 channel.
Average and standard deviation are presented from two mice per group.

Data set [4] in a line: Accumulation of 14C-methylated peptide in renal tissue (Example 3). In kind it is in vivo, mice. As to conditions: 14C autoradiography, iv 30-100 nmol per mouse; 3 hours and 24 hours. The procedure:
This example describes accumulation of peptides of this disclosure in renal tissue. ^14C-methylated knotted peptides were intravenously dosed into mice at 30-100 nmol per mouse. […] Cryosectioning was performed on a Bright-Hacker cryotome, taking 40 μm sagittal sections. Collected sections were allowed to freeze dry at −20° C. for 48-72 hours before being exposed to phosphor imager plates. Plates were exposed for 7 days then scanned on a RayTest CR-Bio35 scanner. Analysis was performed with AIDA WBA analysis software.

Ends that are not written are not given here.

Consider “SEQ ID NO: 4-AF647: SEQ ID NO: 4 conjugated to AF647 (GSSCEPGRTFRDRCNTCRCGADGRSAACTLRACPNQ; not fully specified; cysteine pairing not given here)”, for which, in data set [1], the “accumulation of dye in the kidney proximal tubules (FIG. 13)” value was “can deliver and accumulate dye when attached as a conjugate in the kidney proximal tubules”. In addition, in data set [2] (10 nmol iv, p-value of 0.015), the “renal uptake compared with control peptide-AF647 (FIG. 12)” value is listed as “significantly higher extent than the control peptide”.

Take Cy5.5: the “Fluorescence Signal in Kidneys 3 hours” value in data set [3] (3 hours) is given as 416 ± 170. Moreover, the “Fluorescence Signal in Kidneys 24 hours” value in data set [3] (24 hours) is given as 88 ± 8. The “Fluorescence Signal in Kidneys 48 hours” value in data set [3] (48 hours) turned out to be 58 ± 11.

Consider `CNCCC(Oc1ccc(C(F)(F)F)cc1)c1ccccc1` (centres unmarked) [fluoxetine, reference compound], for which the renal signal pattern result in data set [4] is recorded as “non-interactive passage through the kidneys”.

With “GSSCEPGRTFRDRCNTCRCGADGRSAACTLRACPNQ [SEQ ID NO: 4]”, the renal signal pattern entry in data set [4] was “interacting with the kidney, likely cells of the proximal tubule”. Further, the “renal uptake in competition with unlabeled SEQ ID NO: 4 (FIG. 10)” value in data set [2] (2 nmol SEQ ID NO: 4-AF647 co-injected with 0, 10 or 50 nmol unlabeled peptide) is “specific and saturable”.

The record behind these values is patent US20200330603A1, “PEPTIDES FOR RENAL THERAPY” (FRED HUTCHINSON CANCER RESEARCH CENTER, priority 2015, published 2020).
